T1: Necl-1-GFP (human Necl-1 fused to GFP at its carboxy-terminus) (human, UniProt Q8N126 25-398)
T1 construct: Expressed in S2 cells; In lysate in the western blot; also called pMT-Necl-1-GFP; not shown: GFP of vector pEGFP-N1 (BD Biosciences Clontech), C-terminal fusion
T1 sequence: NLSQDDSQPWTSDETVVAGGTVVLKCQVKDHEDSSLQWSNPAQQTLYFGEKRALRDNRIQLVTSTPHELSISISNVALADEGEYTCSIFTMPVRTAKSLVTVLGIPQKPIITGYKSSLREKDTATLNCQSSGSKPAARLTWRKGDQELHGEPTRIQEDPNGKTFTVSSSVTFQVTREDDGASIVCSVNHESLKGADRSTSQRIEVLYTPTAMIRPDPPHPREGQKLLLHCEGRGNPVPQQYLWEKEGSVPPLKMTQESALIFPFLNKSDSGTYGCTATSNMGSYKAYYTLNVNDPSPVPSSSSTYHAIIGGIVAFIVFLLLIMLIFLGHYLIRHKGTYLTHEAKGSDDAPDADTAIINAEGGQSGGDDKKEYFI

T2: myc-tagged version of Necl-3 (pNecl-3-myc) (human, UniProt Q8N3J6 25-435)
T2 construct: On S2 cells in the aggregation assay; not shown: C-terminal myc-His tag of vector pcDNA3.1/myc-His
T2 sequence: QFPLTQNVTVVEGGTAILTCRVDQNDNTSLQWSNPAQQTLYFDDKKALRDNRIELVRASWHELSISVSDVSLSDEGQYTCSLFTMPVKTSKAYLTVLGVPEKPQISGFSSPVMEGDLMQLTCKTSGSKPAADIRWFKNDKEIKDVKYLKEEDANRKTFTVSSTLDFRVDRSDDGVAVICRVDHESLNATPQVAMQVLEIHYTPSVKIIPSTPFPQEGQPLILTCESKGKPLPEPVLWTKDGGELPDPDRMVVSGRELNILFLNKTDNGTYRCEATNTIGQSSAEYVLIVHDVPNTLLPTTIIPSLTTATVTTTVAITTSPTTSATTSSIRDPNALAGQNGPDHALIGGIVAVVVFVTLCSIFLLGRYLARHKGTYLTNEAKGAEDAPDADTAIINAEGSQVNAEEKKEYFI

B1: Necl-4-DsRed2 (human Necl-4 fused to DsRed2) (other)
chain: QEVQTENVTVAEGGVAEITCRLHQYDGSIVVIQNPARQTLFFNGTRALKDERFQLEEFSPRRVRIRLSDARLEDEGGYFCQLYTEDTHHQIATLTVLVAPENPVVEVREQAVEGGEVELSCLVPRSRPAATLRWYRDRKELKGVSSSQENGKVWSVASTVRFRVDRKDDGGIIICEAQNQALPSGHSKQTQYVLDVQYSPTARIHASQAVVREGDTLVLTCAVTGNPRPNQIRWNRGNESLPERAEAVGETLTLPGLVSADNGTYTCEASNKHGHARALYVLVVYDPGAVVEAQTSVPYAIVGGILALLVFLIICVLVGMVWCSVRQKGSYLTHEASGLDEQGEAREAFLNGSDGHKRKEEFFI
notes: On S2 cells; also called pMT-Necl-4-DsRed2; not shown: DsRed2 (Discosoma Red) of pMT-DsRed2, C-terminal fusion
B2: Necl-4-GFP (human Necl-4 fused to GFP at its carboxy-terminus) (other)
chain: B1 chain
notes: In lysate in the western blot; also called pMT-Necl-4-GFP; not shown: GFP of vector pEGFP-N1 (via pMT-GFP), C-terminal fusion
B3: Necl-3-GFP (human Necl-3 fused to GFP at its carboxy-terminus) (other)
chain: T2 sequence
notes: Expressed in Drosophila S2 cells; on cells in the aggregation assays, in crude cell lysate in the western blot; also called pMT-Necl-3-GFP; not shown: GFP of vector pEGFP-N1 (BD Biosciences Clontech), C-terminal fusion
B4: Necl-1-DsRed2 (human Necl-1 fused to DsRed2) (other)
chain: T1 sequence
notes: On S2 cells; also called pMT-Necl-1-DsRed2; not shown: DsRed2 (Discosoma Red) of vector pDsRed2-N1 (BD Biosciences Clontech), C-terminal fusion
B5: Necl-2-GFP (human Necl-2 fused to GFP at its carboxy-terminus) (other)
chain: QNLFTKDVTVIEGEVATISCQVNKSDDSVIQLLNPNRQTIYFRDFRPLKDSRFQLLNFSSSELKVSLTNVSISDEGRYFCQLYTDPPQESYTTITVLVPPRNLMIDIQKDTAVEGEEIEVNCTAMASKPATTIRWFKGNTELKGKSEVEEWSDMYTVTSQLMLKVHKEDDGVPVICQVEHPAVTGNLQTQRYLEVQYKPQVHIQMTYPLQGLTREGDALELTCEAIGKPQPVMVTWVRVDDEMPQHAVLSGPNLFINNLNKTDNGTYRCEASNIVGKAHSDYMLYVYDPPTTIPPPTTTTTTTTTTTTTILTIITDSRAGEEGSIRAVDHAVIGGVVAVVVFAMLCLLIILGRYFARHKGTYFTHEAKGADDAADADTAIINAEGGQNNSEEKKEYFI
notes: Expressed in S2 cells; on cells in aggregation assays, in cell lysate in the western blot and the pull-down; also called pMT-Necl-2-GFP; not shown: GFP of vector pEGFP-N1 (BD Biosciences Clontech), C-terminal fusion

Key:
Experiment in all cases: S2 cell aggregation assay
[1] = target: B3
[2] = target: B5
[3] = target: T1, Necl-1-GFP (human Necl-1 fused to GFP …)
[4] = target: the molecule itself
[5] = target: T2, myc-tagged version of Necl-3 …

Binder	binding result [1]	binding result [4]	further results
B1	binds	–	binding result [2]: binds; binding result [3]: binds
B2	–	binds	–
B3	–	binds	–
B4	binds	–	–
B5	–	–	binding result [5]: binds

From EP1918299A1 (UNIVERSITE DE GENEVE, dated 2008)
